Test results: the Human Domainome abundance scans (Beltran et al. 2025)
± gives the uncertainty stated by the source.

B1: Transitional endoplasmic reticulum ATPase, residues 26 to 106; numbered along this chain, P55072 (parent)
chain: LIVDEAINEDNSVVSLSQPKMDELQLFRGDTVLLKGKKRREAVCIVLSDDTCSDEKIRMNRVVRNNLRVRLGDVISIQPCP

Variants of: B1
Assay: abundance fitness (aPCA) (normalised: wild type 0, dead -1); higher = more abundant; growth selection in yeast, the domain comes from the species named
Conditions: Homo sapiens

Point of comparison: N65Y, abundance fitness -0.14 ± 0.14. Against it:
- V43D — within error, -0.093 ± 0.11
- V43E — within error, 0.063 ± 0.089
- V43S — within error, -0.052 ± 0.076
- V43W — within error, 0.03 ± 0.14
- V43P — within error, -0.26 ± 0.085
- V43T — within error, -0.068 ± 0.076
- S53G — within error, -0.019 ± 0.048
- S53R — within error, -0.035 ± 0.042
- S53K — within error, -0.016 ± 0.11
- S53Q — within error, 0.033 ± 0.11
- N60M — lower, -0.552 ± 0.16
- N60Y — lower, -0.811 ± 0.39
- N60W — lower, -0.899 ± 0.24
- N60H — within error, -0.045 ± 0.19
- M21Y — lower, -0.516 ± 0.16
- M21V — lower, -0.759 ± 0.12
- M21T — lower, -0.825 ± 0.18
- C80P — within error, -0.048 ± 0.3
- C80N — higher, 0.141 ± 0.089
- C80L — within error, 0.022 ± 0.073
- C80G — higher, 0.056 ± 0.039
- C80Q — within error, 0.104 ± 0.3
- R39L — within error, -0.054 ± 0.061
- R39Q — within error, 0.079 ± 0.12
- R39K — within error, -0.041 ± 0.11
- R39G — within error, 0.008 ± 0.045
- R39P — within error, -0.079 ± 0.096
- E41K — within error, 0.045 ± 0.095
- E41N — within error, -0.383 ± 0.2
- K20D — within error, -0.39 ± 0.22
- K20H — within error, -0.389 ± 0.12
- K20A — within error, -0.005 ± 0.062
- G72L — lower, -0.42 ± 0.072
- G72W — lower, -0.363 ± 0.073
- G72F — within error, -0.336 ± 0.22
- G72R — within error, -0.177 ± 0.051
- G72P — lower, -0.891 ± 0.21
- G72C — within error, -0.453 ± 0.2
- T31E — within error, 0.041 ± 0.064
- T31C — within error, -0.262 ± 0.11
- T31G — within error, -0.063 ± 0.042
- L24W — within error, -0.265 ± 0.075
- L24I — within error, -0.338 ± 0.099
- L24M — within error, -0.249 ± 0.076
- V74P — within error, 0.009 ± 0.095
- V74K — within error, 0.008 ± 0.13
- V74N — within error, 0.034 ± 0.2
- V74C — within error, -0.039 ± 0.08
- V74R — within error, 0.036 ± 0.062
- V74M — within error, -0.107 ± 0.093
- I7V — within error, -0.07 ± 0.053
- I7Y — within error, -0.238 ± 0.14
- I7A — within error, -0.019 ± 0.051
- I7D — within error, 0.032 ± 0.12
- I7H — within error, -0.15 ± 0.13
- I7E — higher, 0.127 ± 0.075
- I7F — within error, 0.009 ± 0.099
- S48F — within error, -0.342 ± 0.17
- S48Y — within error, -0.168 ± 0.1
- S48E — within error, 0.04 ± 0.079
- S48C — higher, 0.07 ± 0.068
- S48K — within error, -0.004 ± 0.11
- S48H — within error, -0.23 ± 0.12
- R58Q — within error, -0.185 ± 0.14
- R58W — lower, -0.625 ± 0.15
- R58T — lower, -0.515 ± 0.13
- R58Y — within error, -0.093 ± 0.4
- G36F — within error, -0.135 ± 0.092
- G36K — within error, -0.423 ± 0.15
- G36A — within error, -0.041 ± 0.036
- G36W — lower, -0.618 ± 0.15
- G36Q — lower, -0.688 ± 0.18
- P79H — within error, -0.037 ± 0.11
- P79L — within error, -0.044 ± 0.035
- P79S — within error, -0.016 ± 0.069
- P79G — within error, -0.083 ± 0.06
- I57A — lower, -0.356 ± 0.064
- I57R — lower, -0.931 ± 0.14
- I57E — lower, -0.804 ± 0.15
- I57S — lower, -0.861 ± 0.15
- I57P — lower, -0.933 ± 0.17
- I57K — lower, -0.931 ± 0.35
- D73T — within error, -0.252 ± 0.097
- D73W — lower, -0.412 ± 0.13
- D73K — within error, -0.309 ± 0.14
- D73P — lower, -0.915 ± 0.19
- N65L — within error, -0.074 ± 0.051
- N65T — within error, -0.07 ± 0.1
- N65Q — within error, -0.075 ± 0.095
- N65S — within error, 0.025 ± 0.062
- I2R — within error, -0.162 ± 0.049
- I2A — lower, -0.45 ± 0.12
- I2Q — within error, -0.164 ± 0.097
- I2E — within error, -0.167 ± 0.11
- I2K — within error, -0.006 ± 0.11
- I2F — within error, -0.103 ± 0.051
- I2G — lower, -0.357 ± 0.066
- V63A — within error, 0.054 ± 0.073
- P81F — within error, -0.195 ± 0.16
- P81R — within error, -0.221 ± 0.14
- D54C — within error, -0.089 ± 0.11
- D54W — within error, -0.289 ± 0.07
- D54F — within error, -0.112 ± 0.099
- D54R — within error, -0.205 ± 0.038
- R40H — within error, -0.139 ± 0.11
- R40Y — within error, 0.073 ± 0.17
- R40C — within error, -0.071 ± 0.12
- R40L — within error, -0.033 ± 0.056
- L71C — within error, -0.112 ± 0.11
- L71Y — within error, -0.391 ± 0.34
- R68I — lower, -0.588 ± 0.21
- R68E — within error, 0.047 ± 0.084
- R68V — within error, -0.124 ± 0.063
- R68S — within error, 0.068 ± 0.073
- V62C — within error, 0.029 ± 0.095
- V62L — within error, 0.005 ± 0.055
- E55W — within error, -0.148 ± 0.058
- E55F — within error, -0.052 ± 0.09
- N66H — within error, -0.314 ± 0.14
- N66K — within error, 0.086 ± 0.091
- N66C — within error, -0.374 ± 0.27
- C52R — within error, -0.192 ± 0.059
- C52L — within error, 0.018 ± 0.059
- C52E — lower, -0.416 ± 0.085
- R28I — within error, -0.061 ± 0.1
- R28H — higher, 0.226 ± 0.17
- R28T — within error, 0.034 ± 0.069
- R28F — within error, -0.401 ± 0.31
- R28N — within error, 0.093 ± 0.14
- R28V — within error, 0.021 ± 0.067
- P19Y — within error, 0.072 ± 0.24
- P19M — within error, 0.015 ± 0.14
- E23S — within error, -0.062 ± 0.059
- E23I — within error, -0.126 ± 0.18
- E23W — within error, -0.338 ± 0.12
- E23M — within error, 0.085 ± 0.3
- E23Q — within error, -0.104 ± 0.11
- L1T — lower, -0.424 ± 0.13
- L1V — within error, -0.003 ± 0.1
- L1K — within error, -0.292 ± 0.31
- L1C — within error, -0.117 ± 0.21
- V46F — lower, -0.688 ± 0.15
- V46M — within error, -0.376 ± 0.12
- V46W — lower, -0.74 ± 0.19
- K38D — within error, -0.11 ± 0.15
- K38N — within error, 0.186 ± 0.28
- K38V — within error, -0.153 ± 0.067
- K38L — within error, 0.019 ± 0.081
- K38A — within error, 0.02 ± 0.076
- K38I — within error, -0.282 ± 0.15
- M59P — lower, -1.12 ± 0.32
- M59I — within error, -0.002 ± 0.14
- I45H — within error, -0.088 ± 0.084
- I45N — within error, 0.036 ± 0.13
- A42M — within error, -0.018 ± 0.065
- A42K — within error, 0.041 ± 0.13
- A42N — within error, -0.147 ± 0.18
- A42P — lower, -0.825 ± 0.15
- A42I — within error, -0.258 ± 0.16
- A42Q — within error, -0.003 ± 0.096
- I77W — lower, -0.856 ± 0.27
- I77G — lower, -0.817 ± 0.093
- T51M — within error, -0.131 ± 0.076
- T51L — within error, -0.117 ± 0.063
- T51V — within error, -0.145 ± 0.052
- V32F — lower, -0.832 ± 0.28
